T1: P2 peptide comprising SEQ ID NO: 31 (human fibrin γ377-395) (human)
T1 construct: Bought (CPC Scientific 920712); also called human P2 peptide
T1 peptide: YSMKKTTMKIIPFNRLTIG

T2: plasminogen-depleted human Fibrinogen (EMD/Calbiochem) (human, UniProt P02671 20-629; P02675 31-491; P02679 27-437, limits assumed)
T2 construct: Bought protein, IgG-depleted, coated on ELISA plates; also called FGN
T2 sequence (looked up) 1: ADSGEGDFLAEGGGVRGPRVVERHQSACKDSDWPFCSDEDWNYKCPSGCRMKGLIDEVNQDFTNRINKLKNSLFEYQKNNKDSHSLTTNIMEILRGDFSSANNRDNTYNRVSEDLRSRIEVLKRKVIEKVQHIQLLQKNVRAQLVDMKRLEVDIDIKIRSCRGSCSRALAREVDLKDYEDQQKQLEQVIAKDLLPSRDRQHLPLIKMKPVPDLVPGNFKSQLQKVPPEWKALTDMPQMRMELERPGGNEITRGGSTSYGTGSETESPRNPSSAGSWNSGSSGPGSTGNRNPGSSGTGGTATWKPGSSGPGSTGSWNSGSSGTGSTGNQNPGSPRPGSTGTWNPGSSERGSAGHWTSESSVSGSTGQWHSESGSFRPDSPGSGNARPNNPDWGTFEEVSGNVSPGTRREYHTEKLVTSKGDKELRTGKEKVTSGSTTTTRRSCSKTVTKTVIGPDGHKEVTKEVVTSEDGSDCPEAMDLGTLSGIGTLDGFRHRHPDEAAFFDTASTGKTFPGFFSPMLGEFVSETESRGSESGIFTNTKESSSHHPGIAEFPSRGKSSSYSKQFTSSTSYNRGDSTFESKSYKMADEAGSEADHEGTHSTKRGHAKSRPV
T2 sequence (looked up) 2: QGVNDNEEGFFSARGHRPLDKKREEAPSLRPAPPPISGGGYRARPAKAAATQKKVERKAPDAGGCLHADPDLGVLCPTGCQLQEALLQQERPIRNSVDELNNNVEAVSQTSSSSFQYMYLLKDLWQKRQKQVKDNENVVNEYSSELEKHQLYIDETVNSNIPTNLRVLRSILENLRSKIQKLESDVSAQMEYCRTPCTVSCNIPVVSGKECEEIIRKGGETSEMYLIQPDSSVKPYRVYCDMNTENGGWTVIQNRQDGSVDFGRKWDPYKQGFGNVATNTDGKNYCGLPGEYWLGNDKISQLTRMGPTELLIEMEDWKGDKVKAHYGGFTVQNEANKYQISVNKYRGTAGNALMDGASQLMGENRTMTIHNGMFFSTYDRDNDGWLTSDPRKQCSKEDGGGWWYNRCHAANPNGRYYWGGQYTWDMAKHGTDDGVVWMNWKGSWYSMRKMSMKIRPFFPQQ
T2 sequence (looked up) 3: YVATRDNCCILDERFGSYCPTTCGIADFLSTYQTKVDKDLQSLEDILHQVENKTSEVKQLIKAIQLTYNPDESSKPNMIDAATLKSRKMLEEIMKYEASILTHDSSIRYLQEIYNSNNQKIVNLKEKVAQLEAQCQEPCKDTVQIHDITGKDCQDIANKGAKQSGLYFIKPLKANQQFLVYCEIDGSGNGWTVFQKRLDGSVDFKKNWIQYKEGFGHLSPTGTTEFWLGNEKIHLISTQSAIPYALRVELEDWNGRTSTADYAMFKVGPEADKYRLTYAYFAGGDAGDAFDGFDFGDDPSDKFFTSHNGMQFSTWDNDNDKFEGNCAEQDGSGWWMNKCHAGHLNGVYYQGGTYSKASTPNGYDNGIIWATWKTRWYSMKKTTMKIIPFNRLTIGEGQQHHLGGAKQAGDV


Key:
[1] = biological target: T1, P2 peptide comprising SEQ ID NO: 31 …; assay: SPR (Biacore) single cycle, steady state affinity; IgG from HEK supernatant captured, γ377-395 peptide analyte
[2] = biological target: T2, plasminogen-depleted human Fibrinogen …; assay: ELISA on coated human fibrinogen; curve did not reach saturation
Method: The humanized antibodies affinity for fibrinogen, fibrin and P2 peptide were assessed by Enzyme-linked immunosorbent assays (ELISA)s (FIGS. 7-16). ELISAs for fibrinogen binding were performed using plasminogen-depleted human Fibrinogen (EMD/Calbiochem). […] IgG1-depleted Fibrinogen (FGN) in 20 mM HEPES/Saline buffer was added to each well of half of a 96-well Nunc Maxisorp™ ELISA plate. The ELISAs for fibrin binding were prepared by adding 50 mL of 20 mM HEPES/Saline buffer containing 14 mM CaCl₂, and 2 units thrombin to each well of the second half of the Nunc Maxisorp™ ELISA plate. 50 mL of 20 mg fibrinogen in 20 mM HEPES/Saline buffer were then added to a total volume of 100 mL. Plates were placed in a 37° C. incubator for 1 hour to allow fibrinogen to clot into fibrin and subsequently placed overnight into a plate dryer at 37° C. overnight. The ELISAs for P2 peptide were prepared by addition of […] of 30 mM P2 peptide in 20 mM HEPES/Saline buffer to each well of a 96-well Nunc Maxisorp™ ELISA plate. Plates were transferred to the plate dryer and dried overnight at 37° C. All ELISAs were preformed using Nunc MaxiSorp 96-well ELISA plates. Blocking was performed using 100 mL 5% BSA in DPBS are incubated at RT for 1 hour. Plates were washed 5× in DPBS containing 0.05% Tween-20 (EL406 was used for the addition of wash buffer only). 50 mL of primary antibodies was diluted in 0.5% BSA in DPBS, and the primary antibodies were added to the plates and incubated for 2 hours at 37° C. Plates were washed 5× in DPBS/Tween. 100 mL secondary antibodies were diluted in 0.5% BSA in DPBS. The secondary antibodies were then added to the plates and incubated for 1 hour at RT. Afterwards, plates were washed 5× in DPBS/Tween. 100 mL of TMB/E substrate solution was added, and the reaction was stopped after 5 minutes with 1N HCl.

Binder	Kd [1]	Relative KD [1]	EC50 [2]
humanized VH5/Vκ2 antibody (antibody, IgG1, V domains shown, IgG1; also called VH5/VK2; VH5Vk2) VH: QVQLVQSGAEVKKPGSSVKVSCKASGYTFTSYWIHWVRQAPGQGLEWIGLIDPSDSYTNYNQKFRGRVTITRDTSTSTAYMELSSLRSEDTAVYYCASSDPTGCWGQGTTVTVSS VL: DIVMTQAAFSNPVTPGTPASISCRSSKSLLHSSGITYLSWYLQKPGQSPQLLIYQMSNLASGVPDRFSSSGSGTDFTLKISRVEAEDVGVYYCAQNLELPLTFGQGTKLEIK	79 µM	1 fold against VH5/VK2	~2.2 µM
humanized VH4/Vκ1 antibody (antibody, IgG1, V domains shown, Expressed as IgG1; also called VH4/VK1; VH4Vk1) VH: QVQLVQSGAEVKKPGSSVKVSCKASGYTFTSYWIHWVRQAPGQGLEWIGLIDPSDSYTNYNQKFRGRVTITVDTSTSTAYMELSSLRSEDTAVYYCASSDPTGCWGQGTTVTVSS VL: DIVMTQAAFSNPITPGTPASISCRSSKSLLHSSGITYLSWYLQKPGQSPQLLIYQMSNLASGVPDRFSSSGSGTDFTLRISRVEAEDVGVYYCAQNLELPLTFGQGTKLEIK	–	–	~3.2 µM

Other lines, results leading:

Kd [1]	Relative KD [1]	EC50 [2]	Binder
47 µM	1 fold against VH4/VK2	~3.8 µM	humanized VH4/Vκ2 antibody (antibody, IgG1, V domains shown, IgG1; also called VH4/VK2; VH4Vk2) VH: QVQLVQSGAEVKKPGSSVKVSCKASGYTFTSYWIHWVRQAPGQGLEWIGLIDPSDSYTNYNQKFRGRVTITVDTSTSTAYMELSSLRSEDTAVYYCASSDPTGCWGQGTTVTVSS VL: DIVMTQAAFSNPVTPGTPASISCRSSKSLLHSSGITYLSWYLQKPGQSPQLLIYQMSNLASGVPDRFSSSGSGTDFTLKISRVEAEDVGVYYCAQNLELPLTFGQGTKLEIK
–	–	~3.6 µM	humanized VH6/Vκ2 antibody (antibody, IgG1, V domains shown, Expressed as IgG1; also called VH6/VK2; VH6Vk2) VH: QVQLVQSGAEVKKPGSSVKVSCKASGYTFTSYWIHWVRQAPGQGLEWIGLIDPSDSYTNYNQKFQGRVTITRDTSTSTAYMELSSLRSEDTAVYYCASSDPTGCWGQGTTVTVSS VL: DIVMTQAAFSNPVTPGTPASISCRSSKSLLHSSGITYLSWYLQKPGQSPQLLIYQMSNLASGVPDRFSSSGSGTDFTLKISRVEAEDVGVYYCAQNLELPLTFGQGTKLEIK

Source: patent US20240279357A1 (THERINI BIO, published 2024)
